Measurements from patent US20060269557A1 (CITY OF HOPE, published 2006).
Positions count from the first letter of the chain named. In names and notes the source's numbering stands. Blank lines part the entries; values can stand above or below the binder they belong to.

How the values were obtained:
[1] = target: T1, soluble PSCA fused human IgG1 or mouse IgG2a Fc (UniProt O43653 12-86, limits assumed); test: relative binding affinity, competitive ELISA
T1 construct: also called PSCA-Fc; not shown: human IgG1 Fc or mouse IgG2a Fc
T1 sequence (looked up): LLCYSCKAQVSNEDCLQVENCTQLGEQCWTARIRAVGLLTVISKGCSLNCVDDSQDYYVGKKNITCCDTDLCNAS
Procedure: (§1) The relative binding affinities of the antibodies were measured by competitive ELISA using biotinylated mu1G8 as tracer. Wells were coated with soluble PSCA fused human IgG1 or mouse IgG2a Fc that had been expressed in pEE12 as described above and purified by Protein A affinity chromatography (Poros2.0; PerkinElmer, Wellesley, Mass.). A fixed concentration of biotinylated parental antibody and increasing concentrations of non-biotinylated competitors were used as previously described (Olafsen 2004). Detection of biotinylated antibody was made with alkaline phosphatase-conjugated streptavidin (Jackson ImmunoResearch Laboratories).

[2] = target: T1, soluble PSCA fused human IgG1 or mouse …; test: competitive ELISA on coated PSCA-Fc, biotinylated mu1G8 as tracer
Procedure: as §1

fold higher relative binding affinity compared to hu1G8-A [1]: 6 fold
fold lower binding affinity than mu1G8 [1]: ~5 fold
Kd [2]: ~25 nM
B1: humanized 1G8 antibody hu1G8-B (antibody, V domains shown)
VH: EVQLVESGGGLVQPGGSLRLSCAASGFNIKDYYIHWVRQAPGKGLEWVAWIDPENGDTEFVPKFQGRATISADTSKNTAYLQMNSLRAEDTAVYYCKTGGFWGQGTLVTVSS
VL: DIQLTQSPSSLSASVGDRVTITCSASSSVRFIHWYQQKPGKAPKRLIYDTSKLASGVPSRFSGSGSGTDFTLTISSLQPEDFATYYCQQWSSSPFTFGQGTKVEIK
notes: Labelled with 124I in the immunoreactivity assays; also called M6B; clone 2B3

Kd [2]: ~150 nM
B2: humanized 1G8 antibody hu1G8-A (antibody, V domains shown)
VH: B1 VH with V61A, P62D, K63S, F64V, Q65K, A68F
VL: B1 VL
notes: also called M6A

Kd [2]: ~5 nM
B3: murine monoclonal antibody 1G8 (antibody, V domains shown)
VH: EVQLQQSGAELVRSGASVKLSCTASGFNIKDYYIHWVNQRPDQGLEWIGWIDPENGDTEFVPKFQGKATMTADIFSNTAYLHLSSLTSEDTAVYYCKTGGFWGQGTLVTVSA
VL: QVVLTQSPAIMSASPGEKVTMACSASSSVRFIHWYQQKSGTSPKRWIYDTSKLASGVPTRFSGSGSGTSYSLTISTMEAEDAATYYCQQWSSSPFTFGSGTKLIIK
notes: Intact murine antibody from hybridoma; also called mu1G8; parental mu1G8
